Results: patent publication US20250340623A1

Biological target: human full-length alpha-synuclein (human) (UniProt P37840)
Experiment: indirect ELISA on coated full-length alpha-synuclein, O.D. 405 nm

EC50 (read off the curve): 6 ng/mL
Substance: Syn1 (antibody)
